Experiment: soluble on expression in E. coli; label from the status in PepcDB or PDB records

**Q.** For “MGSDKIHHHHHHMAKEEALAEAQLDSNRKKIQYRNNNISTQFVTPKYISLLIEKYWHEKNKFRRLLIVIECSKYKNESTIFFFRQVMSGEKDWFIRNYCLRILQRFDEVVYLPPKGKGAQEKYNTLVKHFGCDYKEDIGRTPEDIVKELYENDYIEHAKYFDAFISHAVSNADMVDEFVFKLNSLGLVAFVDWKSDRQDLNRSKLSHYTPTILELRMRQSKNLILIRTKESDLSSWVTWEINYFSKLGKKIAVLNLDNEHGKPHELIDTYPTVRIIDGNILVFNKSKQHKLVDWINES”, which “soluble on expression in E. coli” value is on record?
**A.** Its value is “not soluble”.

**Q.** For “MTTQSTLQSVPALGTHPASGSNPSRAETREQLSKASYDLLVIGGGILGISTAWHAAQSGLRVAVVDAGDFAGATSSASSKLLHGGLRYLQTGAVKLVAENHFERRAVSRQVAPHLANPLTFYLPVYKGGPHGAAKLGAGVFAYSALSAFGDGVGHLLSPAKAAQDVPELRTDNLKAVAVYGDDQMNDARMALMTVRAAVESGAVVLNHAEVTGLRFTGGRVTGAELKDRLSGDEFGVNARLVLNATGPWVDHLRRMEDPAAAPSIRLSKGAHLVLKRTAPWKAALATPIDKYRITFALPWEDMLLLGTTDEEFEGDPADVAVNDKDITQILDEAAFSIRDQQLDRDLITYSFAGLRVLPGGPGDTAKAKRETVVTEGRGGMLSVAGGKWTTFRHIGRTVMKKLEALPGHPLGDDFEPIASLPKKLPLPGVANPRAVAHRLLVDGSAPGPRMAADTARHLATHYGSLAFDIARLANESPELARRVHPDAPEIWAQVVWARDNEWAETADDVLRRRTTLTIRGLATDDVRAQVQDVLDKKLEHHHHHH”, which “soluble on expression in E. coli” value is on record?
**A.** The value was “not soluble”.

**Q.** With “HGSMEVPVSRAYGCFQEGPEAPISSACREAKRVGGAQAMYDWNAINQTPAGDNHQALVPDGALCGGGKAEFKGFNLARSDWRATSIVPDAKGDYEFVFQATAPHATKYFRLYVTRDGWNPSTPLKWSDLTLFGAYNGNPPLDVGNRYRMTMRLPAGKTGRHIIYSVWKRSDSEEAFYACSDVSFGH” as the sequence, how does the “soluble on expression in E. coli” value read?
**A.** Its value is “not soluble”.

**Q.** Which “soluble on expression in E. coli” value does the source give for “MSLTFTEQAKDQAQASWQGSFQHPFITELHEGTLSPTIFRYYLIQDHYYLKHFSQLYRLIAAQTQQPRLKKLLLTNAENLALGELAIRETFFEELAITEEEVAATPIAPTAYHYVSHMYRQLIEGTPKTAAASMLPCSWLYQEIGAQLVKQHSPEPLYQRWIETYAGEEAYQHVQEERQLLDQLYEESSPQEQAAMITAFVISSEMEYAFWEMAYTHETWIGEGGSHHHHHH” here?
**A.** Its value is “soluble”.

**Q.** With “MGSDKIHHHHHHMWTEIDTQISRVTGERFQSQQRRSVSGGCINQGYAVADGTLTYFVKLNQASQVAMFEAEALGLEQMLTTNSIRVPKPICWGIAGNSGYIVLEWLEMGSGNTNSWEEMGRNLAKMHKATSQKGYGWDMNNTIGSTPQINTWTEDWTEFYSKHRLGYQFQLARRRGGSFPKQDELLGALPELLADHEVQPSLVHGDLWGGNAGCTVSGEPVIFDPATYFGDREVDIAMTELFGGFPAAFYKGYNQVFPLDAGYEKRKTLYNLYHILNHFNLFGGGYASQANRMIEQILR” as the sequence, how does the “soluble on expression in E. coli” value read?
**A.** The value was “not soluble”.

**Q.** With “MAHHHHHHMPVAPLHPELQRVLKENRRTRAFDPAAWIEMKCAKLNDYMQRCGLKACVTSVSGGIDSAVVLAMCAHAMRAHNSPIQKNVGLCQPIHSSDWALRRGKENIAACGATEVVVDQTALHTELATLVERAAGIEGGAFARGQLRSYMRTPPGFYVAQLLTQEGTPAVVMGTGNKDEDFYLGYFCKAGDGVVDVQIISDLHKSEVLLVAEVLGVPENTRHAAPSADLWEGQTDEDELGFPYDFVELFTEWYLKQRETTKIKFLNSLCDEARNQFERYVAACELVHRRNAHKLQGQVNL” as the sequence, how does the “soluble on expression in E. coli” value read?
**A.** Its value is “not soluble”.

**Q.** With “MSITLSDSAAARVNTFLANRGKGFGLRLGVRTSGCSGMAYVLEFVDEPTPEDIVFEDKGVKVVVDGKSLQFLDGTQLDFVKEGLNEGFKFTNPNVKDECGCGESFKLAAALDHHHHHH” as the sequence, how does the “soluble on expression in E. coli” value read?
**A.** The value was “soluble”.

**Q.** Which “soluble on expression in E. coli” value does the source give for “MRELQTLLISCLKQERISGSMFRVLGKVVNHVVCEMFKHQDIAWDGLRDYIVSQSKTKFQRAVYIFQCLTTPLEDDEFVIHVMENLLPEIRIRLNPPRDLLVDNSCWVLAFTGAFCATIHLREFPSQAESVKEIANKMIDSVRELVEIGIEVGLVRRAFRDLENIVKNLNKWNGTGS” here?
**A.** Its value is “soluble”.

**Q.** Which “soluble on expression in E. coli” value does the source give for “KIGKHTIKFPIFQGGMGVGISWDELAGNVAKEGALGVISAVGTGYYKNMRFVERIVAKKPFEALNFYSKKALNEIFANARKICGNNPLGANILYAINDYGRVLRDSCEAGANIIITGAGLPTNMPEFAKDFSDVALIPIISSAKALKILCKRWSDRYKRIPDAFIVEGPLSGGHQGFKYEDCFKEEFRLENLVPKVVEASKEWGNIPIIAAGGIWDRKDIDTMLSLGASGVQMATRFLGTKECDAKVYADLLPTLKKEDILLIKSPVGYPARAINTGVIKRIEEGNAPKIACVSNCVAPCNRGEEAKKVGYCIADGLGRSYLGNREEGLYFTGANGYRVDKIISVHELIK” here?
**A.** The value was “not soluble”.

**Q.** With “MTSNHAILFPGQGAQRADMGAPIFDIYTKLVAEAEEIAEFSIRDFFRDCPADRFSNTLYVQPALYTVNALYYRRYIDESGALPLFLAGHSLGEFNALHAAGVFDFETGLRLVKKRALLMSESQGGGMAAVLGLNAEEVVKILEENNLFDLTIANINSDLQMVISGPIESIKQAEEIFYDNYAIKYVVLRVSGAFHSTMLNTAAIKFSEYIQGFSFLPPQIPVIANRTACPYTLSSVIKNLSEHINRPVMWRQSVIYMRTHGVERFTEMGETSLLLDMVKNIL” as the sequence, how does the “soluble on expression in E. coli” value read?
**A.** Its value is “not soluble”.

**Q.** Which “soluble on expression in E. coli” value does the source give for “QLSSFETCAEKEESANTTESAIFEYHCEMSFDPNLLHNNGHNGYPNGTSAALRETGVIEKLLTSYGFIQCSERQARLFFHCSQYNGNLQDLKVGDDVEFEVSSDRRTGKPIAVKLVKIKQEILPEERMNGQVVCAVPHNLESKSPAAPGQSPTGSVCYERNGEVFYLTYTPEDVEGNVQLETGDKINFVIDNNKHTGAVSARNIMLLKKKQARCQGVVCAMKEAFGFIERGDVVKEIFFHYSEFKGDLETLQPGDDVEFTIKDRNGKEVATDVRLLPQGTVIFEDISIEHFEGTVTKVIPKVPSKNQNDPLPGRIKVDFVIPKELPFGDKDTKSKVTLLEGDHVRFNISTDRRDKLERATNIEVLSNTFQFTNEAREMGVIAAMRDGFGFIKCVDRDVRMFFHFSEILDGNQLHIADEVEFTVVPDMLSAQRNHAIRIKKLPKGTVSFHSHSDHRFLGTVEKEATFSNPKTTSPNKGKEKEAEDGIIAYDDCGVKLTIAFQAKDVEGSTSPQIGDKVEFSISDKQRPGQQVATCVRLLGRNSNSKRLLGYVATLKDNFGFIETANHDKEIFFHYSEFSGDVDSLELGDMVEYSLSKGKGNKVSAEKVNKTHSVNGITEEADPTIYSGKVIRPLRSVDPTQTEYQGMIEIVEEGDMKGEVYPFGIVGMANKGDCLQKGESVKFQLCVLGQNAQTMAYNITPLRRATVECVKDQFGFINYEVGDSKKLFFHVKEVQDGIELQAGDEVEFSVILNQRTGKCSACNVWRVCEGPKAVAAPRPDRLVNRLKNITLDDASAPRLMVLRQPRGPDNSMGFGAERKIRQAGVID” here?
**A.** The value was “soluble”.

**Q.** Which “soluble on expression in E. coli” value does the source give for “MAMAVPVSARPQSPAEGFYAINNQFQTNGPKGFSEIKILANEDMFLRMDLPGVPDEGGLSVYHNRSQETVVVFAKAPKVHTHDSTERRYQTMTGIGCSCCAISSITTHMSDGVFRVILSKTRIDPHRSPCTDPALTGPVLQPHPLAFPQPTMAYESKQLPNGKLFVRADMPGVPKENFTVSVTNGRVKVTGQAPAVSHDSSGRFYSGDVAMLSTPVDIPSRRIKTIAKNGVIRLLIPPF” here?
**A.** The value was “soluble”.

**Q.** Which “soluble on expression in E. coli” value does the source give for “MREEFLEEIPLDAPPEEAKELRTEVMTLNVGPQHPSTHGVLRLMVTLSGEEVLEVVPHIGYLHTGFEKTMEHRTYLQNITYTPRMDYLHSFAHDLAYALAVEKLLGAVVPPRAETIRVILNELSRLASHLVFLGTGLLDLGALTPFFYAFRERETILDLFEWVTGQRFHHNYIRIGGVKEDLPEEFVPELKKLLEVLPHRIDEYEALFAESPIFYERARGVGVIPPEVAIDLGLTGGSLRASGVNYDVRKAYPYSGYETYTFDVPLGERGDVFDRMLVRIREMRESVKIIKQALERLEPGPVRDPNPQITPPPRHLLETSMEAVIYHFKHYTEGFHPPKGEVYVPTESARGELGYYIVSDGGSMPYRVKVRAPSFVNLQSLPYACKGEQVPDMVAIIASLDPVMGDVDR” here?
**A.** The value was “soluble”.

**Q.** With “MSLAQGDTEVPTLYLWKTGPWGRCMGDDCGPGGIQTRAVWCAHVEGWTTLHTNCKQAVRPSNQQNCFKVCDWHKELYDWRLGTWDRCQPVISKSLEKSRECVKGEEGIQVREIMCIQKDKDIPAEDIICEYFEPKPLLEQACLIPCQKDCMVSEFSPWSECSRTCGSGLQHRTRHVVAPPQYGGSGCPNLTEFQVCQSNPCEEDESLYSLQVGPWSACSVPHTRQARQARRRGKNKEREKERGKAVKDPEARELIKKKRNRNRQNRQENRYWDIQIGYQTRDVTCLNRTGKSADLSFCQQERLPMTFQSCVITKECQVSEWLEWSPCSKTCHDVTSPTGTRVRTRTITQFPIGSEKECPALEEKEPCVSQGDGAVLCATYGWRTTEWTECHVDPLLSQQDKRRANQTALCGGGVQTREIYCIQTNDNMLSHGNTEGHHHHHH” as the sequence, how does the “soluble on expression in E. coli” value read?
**A.** The value was “not soluble”.

**Q.** Which “soluble on expression in E. coli” value does the source give for “MGSDKIHHHHHHMKLADIYAHFQEDIFTIERELEEAVQARHDILRKASVHLLKAGGKRIRPVFVLLAGKFGTYDVNVLKHIAVPLELIHMASLVHDDVIDDADLRRGKKTIKSQWDNRIAMYTGDYMFAKAVQTATYFDDPNIHQIISNAINEMCLGEVEQIRDQYNPNQHLRIYFRRIKRKTALLIAVSCQLGALAAKADPAIVQKLYYFGYYVGMSFQITDDVLDFVGTEEQLGKPAGSDLLQGNVTLPALYALHHDMHAKRLIEQVLADRGNNSVHMEEVIAAIVSSGGIDYALSISDLYLKKAMRMLDHLPDDEPKQFLQEIANYIGRRKF” here?
**A.** The value was “not soluble”.

**Q.** Which “soluble on expression in E. coli” value does the source give for “SEQSSPGFRQTHLQDLSEATQDVKEENHYLTPRSVLLELDNIIASSDSGESIETDGPDQVSGRIECHYEPMESYFFKETSHESVDSSKEEPQTLPETQDGDLHLQEQGSGIDWCLSPADVEAQTTNDQKGSASLTVVQLSILINNIPDESQVEKLNVFLSPPDVINYLALTEATGRICVSQWEGPRRLGCIFCHGDHLLAVNDLKPQSLEEVSLFLTRSIQKEKLKLTIGRIPNSETFHAASCMCPSKCQSAAPSQLDKPRLNRAPKRSPAIKKSQQKGARE” here?
**A.** Its value is “soluble”.

**Q.** With “MGSDKIHHHHHHMTGIPTHKAVQQSDFGIFAKEVSPFSPNRTINYVHRDDYYILGVVKSGTCHVSIDFKEYVFSAGDVVCTQPNQVHHIIDTGNADVLLLFIDGVFIDTPTKQIIAEYVLSPVPFKINDIQYTDLGQLFSMILRRMNGGNPDCKSKAVIQNLSCAIVGIITDNIQKYIGQNHKNRRHIEITLALKALFSEEKQLNRSVSYYAEALHISPVYLNEVVKNVTGESVSKYIQNELILRAKRMLVYTSLNVREISIDLGIEDYAYFTRLFTKAVGVNPTSYRKKYLE” as the sequence, how does the “soluble on expression in E. coli” value read?
**A.** The value was “not soluble”.

From the DeepSol protein solubility set
